Test results taken from patent US20170081379A1.

Target: recombinant HDM2 17-125 (human) (UniProt Q00987)
Experiment: fluorescence polarization, FITC-labeled peptide with HDM2 17-125

Chain of recombinant HDM2 17-125 (human) (Q00987 17-125 limits assumed): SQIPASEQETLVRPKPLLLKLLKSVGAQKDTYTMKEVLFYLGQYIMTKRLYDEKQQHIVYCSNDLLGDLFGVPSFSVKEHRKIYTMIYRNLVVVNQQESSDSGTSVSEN

**Q.** Which Kd does the source give for FITC-SAH-p53-8F19A (peptide) here?
**A.** > 4 µM
